Consider 1 molecule from paper PMC4623018, “Studies on the catalytic domains of multiple JmjC oxygenases using peptide substrates” (Epigenetics, 2014).

In this assay the target is T1, KDM4A catalytic domain (human, UniProt O75164 1-359).
T1 construct: The limits 1-359 are those of the KDM4A catalytic domain used in the activity assays; also called KDM4A (1–359); 4A(1–359); source: E. coli, purified as previously described
T1 sequence (looked up): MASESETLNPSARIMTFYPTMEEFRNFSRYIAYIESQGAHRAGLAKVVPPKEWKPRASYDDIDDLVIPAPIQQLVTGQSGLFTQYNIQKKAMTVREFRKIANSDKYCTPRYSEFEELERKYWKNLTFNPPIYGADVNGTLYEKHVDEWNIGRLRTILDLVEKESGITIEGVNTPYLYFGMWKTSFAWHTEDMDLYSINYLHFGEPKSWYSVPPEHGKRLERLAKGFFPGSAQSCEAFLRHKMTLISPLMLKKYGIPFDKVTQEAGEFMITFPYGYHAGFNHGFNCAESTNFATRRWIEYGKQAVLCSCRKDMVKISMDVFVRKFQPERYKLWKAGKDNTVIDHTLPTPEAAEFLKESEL
Briefly: crystal structure; KDM4A catalytic domain complexed with H3K27me3 peptides (25 residue and 5 residue). The settings on record: both partners purified.

Ends that are not written are not given here. Me3 = trimethyl on the lysine side-chain amine

B1: 5 residue H3K27me3 peptide (peptide, UniProt P68431 26-30, looked up)
peptide: ARK(Me3)SA
notes: histone H3 fragment, residues 25-29; also called H3(25–29)K27me3
On to B1, for which the binding result is given as “binds”.
